Experimental data reported in PMC6662825, “The MTR4 helicase recruits nuclear adaptors of the human RNA exosome using distinct arch-interacting motifs” (Nature Communications, 2019).
Positions count from the first letter of the chain named.

Experiments:
Assay in all cases: pull-down; GST-tagged MTR4 constructs as bait, Trx-NVL constructs as prey, glutathione sepharose; 10 μM GST-MTR4∆N with 20 μM Trx-NVL constructs; 50 mM Hepes pH 7.5, 150 mM NaCl, 5% glycerol, 0.05% NP40, 1 mM DTT, 30 min at 4 °C; SDS-PAGE, Coomassie
Conditions in all cases: both partners purified
GST-MTR4-KOW = biological target: T1, GST-MTR4-KOW (human, UniProt P42285 645-787)
T1 construct: human MTR4 KOW domain, residues 645–787; also called GST-tagged MTR4 KOW; source: E. coli BL21 star (DE3), purified (Ni-NTA, heparin, SEC); not shown: 6xHis-GST, N-terminal, kept
T1 sequence (looked up): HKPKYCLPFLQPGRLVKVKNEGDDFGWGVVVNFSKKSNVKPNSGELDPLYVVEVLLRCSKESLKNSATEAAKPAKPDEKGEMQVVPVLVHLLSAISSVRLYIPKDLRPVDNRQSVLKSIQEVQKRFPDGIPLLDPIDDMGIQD

GST-MTR4∆N F677E = biological target: T2, GST-MTR4∆N F677E (human, UniProt P42285 75-1042, F677E)
T2 construct: source: E. coli BL21 star (DE3), purified (Ni-NTA, heparin, SEC); not shown: 6xHis-GST, N-terminal, kept
T2 sequence (looked up): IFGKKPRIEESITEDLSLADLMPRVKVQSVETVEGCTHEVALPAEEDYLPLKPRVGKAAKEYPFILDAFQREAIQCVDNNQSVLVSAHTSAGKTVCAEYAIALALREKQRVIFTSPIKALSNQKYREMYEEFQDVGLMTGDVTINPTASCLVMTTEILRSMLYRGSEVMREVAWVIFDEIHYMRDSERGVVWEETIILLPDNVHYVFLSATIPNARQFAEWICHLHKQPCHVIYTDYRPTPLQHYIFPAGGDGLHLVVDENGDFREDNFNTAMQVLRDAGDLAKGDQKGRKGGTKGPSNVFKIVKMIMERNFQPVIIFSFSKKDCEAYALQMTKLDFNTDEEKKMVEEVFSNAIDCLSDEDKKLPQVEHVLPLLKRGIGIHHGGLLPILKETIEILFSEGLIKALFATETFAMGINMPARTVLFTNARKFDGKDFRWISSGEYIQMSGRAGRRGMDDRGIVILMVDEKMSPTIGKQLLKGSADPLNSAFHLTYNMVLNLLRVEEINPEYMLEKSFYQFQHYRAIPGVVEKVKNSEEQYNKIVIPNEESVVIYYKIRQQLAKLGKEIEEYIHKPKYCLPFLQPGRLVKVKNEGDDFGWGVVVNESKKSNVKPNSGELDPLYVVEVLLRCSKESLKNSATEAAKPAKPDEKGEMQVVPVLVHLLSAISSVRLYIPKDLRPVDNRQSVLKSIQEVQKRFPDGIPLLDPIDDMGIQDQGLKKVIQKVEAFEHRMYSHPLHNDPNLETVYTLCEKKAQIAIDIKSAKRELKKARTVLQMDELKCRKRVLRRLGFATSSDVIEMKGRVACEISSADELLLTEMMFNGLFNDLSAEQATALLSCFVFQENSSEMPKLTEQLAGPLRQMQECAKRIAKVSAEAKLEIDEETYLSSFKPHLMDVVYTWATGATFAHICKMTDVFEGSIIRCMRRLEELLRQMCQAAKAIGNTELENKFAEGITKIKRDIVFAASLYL

GST-MTR4-∆N = biological target: T3, GST-MTR4-∆N (human, UniProt P42285 75-1042)
T3 construct: Tag is cleavable with 3C protease; kept for the GST pull-downs; also called GST-tagged MTR4∆N; source: E. coli BL21 star (DE3), purified (Ni-NTA, heparin, SEC); not shown: 6xHis-GST, N-terminal, kept
T3 sequence (looked up): T2 sequence (looked up) with E603F

Measured: binding result

B1: Trx-NVL^167–216 (domain or fragment, human, UniProt O15381 167-216, looked up)
chain: KDSEGGWFIDKTPSVKKDSFFLDLSCEKSNPKKPITEIQDSKDSSLLESD
notes: source: E. coli BL21 star (DE3), purified (Ni-NTA, SEC); not shown: 6xHis-Trx, N-terminal, kept
binds: all assays above
